According to paper PMC8678608:

Target: human VEGF165 protein (human)
Test: ELISA; plates coated with recombinant human PD-L1 or VEGF165 (100 ng/well, carbonate buffer); antibody 1 h at room temperature; detected with HRP goat anti-human Fc, TMB, 450 nm

B1: HB0025 (anti-PD-L1/VEGFR1D2-Ig fusion protein) (bispecific antibody, V domains shown)
VH: QVQLVQSGAEVKKPGASVKVSCKASGYAFTGYTIHWVRQAPGQRLEWMGWFYPGSGTLKYSEKFQGRVTITRDKSLSTAYMELSSLRSEDTAVYYCARHGTGTLMAMDYWGQGTLVTVSS
VL: DVVMTQTPLSLSVTPGQPASISCKSSQSLANSYGNTYLSWYLHKPGQSPQLLIYGISNRFSGVPDRFSGSGSGTDFTLKISRVEAEDVGVYYCLQGTHQPPTFGQGTKLEIK
B1 showed an EC50 of 0.48 nM.
